From patent US20240317873A1 (CITY OF HOPE, published 2024)
Read-outs that look alike come from different tables or passages of the source. Values belong to the binder of their own block, whether it stands above or below them.

Assays:
[1] = biological target: T1, HVEM (SinoBio, monomeric) (human, UniProt Q92956 39-202); assay: SPR; the chip of this figure is not described, the only SPR set-up of the filing is HVEM (SinoBio, monomeric) on CM5
T1 construct: Bought protein immobilised on a CM5 chip by EDC/NHS coupling; also called hHVEM; TNFRSF14
T1 sequence (looked up): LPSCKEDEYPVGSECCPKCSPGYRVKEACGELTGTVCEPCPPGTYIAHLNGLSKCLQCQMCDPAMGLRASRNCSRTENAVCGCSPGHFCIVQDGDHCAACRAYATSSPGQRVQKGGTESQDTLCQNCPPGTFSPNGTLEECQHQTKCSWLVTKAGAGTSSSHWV

[2] = biological target: T2, human HVEM on the surface of cells (MM.1S myeloma cells, patient myeloma cells, Jurkat cells overexpressing … (human, UniProt Q92956 39-283)); assay: imaging mass cytometry, 166Er-conjugated antibody, mouse bone marrow engrafted with MM1.S cells
T2 construct: whole, on cells; also called CD270; TNFRSF14
T2 sequence (looked up): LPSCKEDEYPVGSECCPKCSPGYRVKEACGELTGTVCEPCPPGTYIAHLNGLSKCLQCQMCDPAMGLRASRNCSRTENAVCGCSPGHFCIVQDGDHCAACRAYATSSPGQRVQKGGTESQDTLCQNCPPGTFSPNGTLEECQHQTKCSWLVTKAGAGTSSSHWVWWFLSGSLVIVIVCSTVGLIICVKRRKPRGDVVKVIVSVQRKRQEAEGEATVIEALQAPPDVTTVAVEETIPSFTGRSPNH
Experimental: Mass cytometry was performed on mice bone marrow tissues engrafted with MM1.S cells. […] HVEM-4, 5, 13, 17, and 22 were used for staining and the nucleus was counterterstained with Ir-191.

[3] = biological target: T2, human HVEM on the surface of cells …; assay: imaging mass cytometry, 166Er-conjugated antibody, bone marrow of a multiple myeloma patient
Experimental: Mass cytometery was performed on bone marrow from a patient with multiple myeloma. […] HVEM-4, 5, 13, 17, and 22 were used for staining and the nucleus was counterterstained with Ir-191.

[4] = biological target: T1, HVEM (SinoBio, monomeric); assay: SPR; the chip of this figure is not described, the only SPR set-up of the filing is HVEM (SinoBio, monomeric) on CM5; remark: listed apart in the source
[5] = biological target: T3, HVEM recombinant protein (ELISA-based competition assay) (human, UniProt Q92956 39-202, limits assumed); assay: ELISA-based competition assay with recombinant proteins: binding of biotin-labelled HVEM to recombinant LIGHT (the blocked ligand), antibody titrated
T3 construct: The internal control used a biotin-labeled human HVEM; also called recombinant protein of HVEM; biotin-labeled human HVEM
T3 sequence (looked up): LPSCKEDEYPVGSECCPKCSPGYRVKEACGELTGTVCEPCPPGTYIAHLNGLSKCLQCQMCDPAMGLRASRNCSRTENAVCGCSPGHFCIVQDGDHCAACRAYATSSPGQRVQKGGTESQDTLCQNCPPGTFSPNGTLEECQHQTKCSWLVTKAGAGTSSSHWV

[6] = biological target: T1, HVEM (SinoBio, monomeric); assay: SPR, HVEM immobilised on CM5 chip, Fab as analyte, 25 C
[7] = biological target: T1, HVEM (SinoBio, monomeric); assay: SPR; the chip of this figure is not described, the only SPR set-up of the filing is HVEM (SinoBio, monomeric) on CM5; remark: listed apart in the source

binding result [1]: binds
binding result [2]: binds
B1: anti-HVEM antibody clone 17 (antibody, human IgG1, kappa, V domains shown)
VH: QIQLVQSGPELKKPGEPVKISCRASGYTLTNFGMNWVKQAPGKGLKWMGWINTYTGEPTYADDFKGRFAFSLETSASTAYLQINNLKNEDTATYFCARSFYGNEHYWGQGTSVTVSS
VL: QIVLTQSPAIMSASPGEKVTLTCSASSSVSSSYLFWYQQKPGSSPKLWIYSTSNLASGVPARFSGHGSGTSYSLTISSMEAEDAASYFCHQWSSYPYTFGGGTKLEIKR
notes: also called HVEM17; HVEM-17

binding result [3]: binds
binding result [4]: binds
B2: anti-HVEM antibody clone 22 (antibody, human IgG1, kappa, V domains shown)
VH: QVQLQQSGAELVRPGASVTLSCKTSGYTFIHYEIHWVKQSPVHGLEWIGAIDPETGGTADNQKFKDKVTLTADKSSNTAYMDLRSLTSEDSAVYYCTRGDWVFAYWGQGTLVTVSA
VL: DVVMTQTPLSLPVSLGDQASISCRSSQSPLHSNGNTYLDWYLQKPGQSPKLLIYKVSNRFSGVPDRFSGSGSGTDFTLKISRVEAEDLGIYFCSQTTHVPPTFGGGTKLEIKR
notes: also called HVEM22; HVEM-22

IC50 (read off the curve) [5]: ~20 nM
B3: mcHVEM13 IgG (clone 13) (antibody, V domains shown)
VH: QIQLVQSGPELKKPGETVKISCKASGYILTNYGMNWVKQAPGKGLKWMGWINTYTGEPTYADAFKGRFAFSLETSASTAYLQINNLKNEDTATYFCARGYGNHWYFDYWGQGTSVTVSS
VL: QIVLTQSPAILSASPGEKVTMTCSASSSVSYMHWYQRKSGTSPKRWIYDTSKLASGVPARFSGSGSGTSYSLTISSMEAEDAATYYCQQWTSDPLTFGAGTKLELKR
notes: Murine chimeric IgG; The constant region of the tested IgG is not spelled out; Metal-conjugated in mass cytometry; also called anti-HVEM13; aHVEM13

Kd [6]: 99.6 nM
koff [6]: 0.138 s⁻¹
kon [6]: 1.38e+06 M⁻¹ s⁻¹
B4: mcHVEM13 Fab (clone 13) (Fab, V domains shown)
VH: QIQLVQSGPELKKPGETVKISCKASGYILTNYGMNWVKQAPGKGLKWMGWINTYTGEPTYADAFKGRFAFSLETSASTAYLQINNLKNEDTATYFCARGYGNHWYFDYWGQGTSVTVSS
VL: QIVLTQSPAILSASPGEKVTMTCSASSSVSYMHWYQRKSGTSPKRWIYDTSKLASGVPARFSGSGSGTSYSLTISSMEAEDAATYYCQQWTSDPLTFGAGTKLELKR
notes: Murine chimeric Fab; also called new mcHVEM13 Fab; anti-hHVEM murine chimeric Fab clone 13

binding result [7]: no binding (tested: 100 nM)
B5: HVEM 23Ab (antibody, human IgG1, kappa, V domains shown)
VH: QIQLVQSGPELKKPGETVKISCKASGYTFTNFGMNWVKQAPGKALKWVGWINTYTGEPTYADDFKGRFAFSLETSATTAYLQISNLKNEDTATYFCARSYYFVTSEDYWGQGTSVTVSS
VL: QIVLTQSPAIMSASPGERVTMTCTARSSVSSSYLHWYQQKPGSSPKLWIYSTSNLASGVPARFSGSGSGASYSLTNSSMEAEDAATYYCHQYHRSTWTFGGGTKLEIKR
notes: also called anti-HVEM antibody clone 23
